Reference: publication PMC3874172 (Nucleic Acids Research, 2013)

T1: GST-ETO (UniProt Q06455-2 1-577)
T1 sequence (looked up): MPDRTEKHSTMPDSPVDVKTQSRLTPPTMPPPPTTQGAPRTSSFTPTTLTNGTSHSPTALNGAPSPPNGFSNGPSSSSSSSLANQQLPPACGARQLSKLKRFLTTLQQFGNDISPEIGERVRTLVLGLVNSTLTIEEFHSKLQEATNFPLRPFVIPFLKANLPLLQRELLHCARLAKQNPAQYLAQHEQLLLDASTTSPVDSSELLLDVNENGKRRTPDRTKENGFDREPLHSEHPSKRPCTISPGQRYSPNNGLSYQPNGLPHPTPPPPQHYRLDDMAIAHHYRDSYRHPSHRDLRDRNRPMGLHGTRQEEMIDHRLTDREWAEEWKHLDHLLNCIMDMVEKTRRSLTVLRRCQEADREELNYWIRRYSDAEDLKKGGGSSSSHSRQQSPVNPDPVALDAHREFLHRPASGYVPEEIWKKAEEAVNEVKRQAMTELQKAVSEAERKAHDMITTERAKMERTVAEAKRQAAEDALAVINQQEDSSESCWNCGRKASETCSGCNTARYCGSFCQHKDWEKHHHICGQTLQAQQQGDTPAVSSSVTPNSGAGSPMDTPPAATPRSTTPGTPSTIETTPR

B1: E2A-AD1 (amino acids 1-90), in vitro translated (domain or fragment, UniProt P15923 1-90, looked up)
chain: MNQPQRMAPVGTDKELSDLLDFSMMFPLPVTNGKGRPASLAGAQFGGSGLEDRPSSGSWGSGDQSSSSFDPSRTFSEGTHFTESHSSLSS
modifications: 35S label

Legend:
GST-ETO [1] = biological target: GST-ETO (UniProt Q06455); test: pull-down
GST-ETO [2] = biological target: T1, GST-ETO; test: pull-down

| Molecule | fold reduction of binding relative to E2A-AD (GST-ETO [1]) [fold] | fold reduction of binding relative to E2A-AD (GST-ETO [2]) [fold] |
| --- | --- | --- |
| isolated DES domain of E2A, in vitro translated Gal4-DBD fusion (domain or fragment) | 4 |  |
| B1 |  | ~24 |
